The values below come from patent publication US20190062420A1 (Janssen / Centocor, published 2019).

The target in assay [1] is T1, human FcγRIIA (NM_021642) expressed on cells (human, UniProt P12318 36-317).
T1 construct: Transiently expressed on Expi293F cells; also used here for FcγRIIA on human macrophages in the ADCP assay; also called Expi293F FcγRIIA; HEK293F cells expressing FcγRIIA
T1 sequence: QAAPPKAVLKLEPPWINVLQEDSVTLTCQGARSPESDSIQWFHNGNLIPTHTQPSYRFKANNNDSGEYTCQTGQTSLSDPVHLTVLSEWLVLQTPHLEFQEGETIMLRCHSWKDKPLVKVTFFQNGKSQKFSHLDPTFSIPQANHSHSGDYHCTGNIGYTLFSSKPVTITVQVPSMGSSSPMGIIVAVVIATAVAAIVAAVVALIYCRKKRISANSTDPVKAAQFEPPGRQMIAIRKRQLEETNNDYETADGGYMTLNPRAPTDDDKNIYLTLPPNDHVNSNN
Description: flow cytometry; Expi293F cells transfected with FcγRIIA. On the procedure: (§1) Plasmids expressing cDNAs encoding human FcγRI (NM_000566) (SEQ ID NO: 44), FcγRIIA (NM_021642) (SEQ ID NO: 2), FcγRIIB (NM_004001) (SEQ ID NO: 3), and FcγRIIIA (NM_000569) (SEQ ID NO: 45) (Origene) were transiently transfected into Expi293F cells by ExpiFectamine293 transfection kit (Life Technologies). Flow cytometry assays were performed 48 h after transfection.
(§2) 2×10⁵ cells per well were seeded in 96-well plate and blocked in BSA Stain Buffer (BD Biosciences, San Jose, USA) for 30 min at 4° C. Cells were incubated with test mAbtyrin on ice for 1.5 h at 4° C. After being washed twice with BSA stain buffer, the cells were incubated with R-PE labeled anti-human or anti-mouse IgG secondary antibody (Jackson Immunoresearch Laboratories) for 45 min at 4° C. The cells were washed twice in stain buffer and then resuspended in 150 μL of Stain Buffer containing 1:200 diluted DRAQ7 live/dead stain (Cell Signaling Technology, Danvers, USA). PE and DRAQ7 signals of the stained cells were detected by Miltenyi MACSQuant flow cytometer (Miltenyi Biotec, Auburn, USA) using B2 and B4 channel respectively. Live cells were gated on DRAQ7 exclusion and the geometric mean fluorescence signals were determined for at least 10,000 live events collected. FlowJo software (Tree Star) was used for analysis. Data was plotted as the logarithm of antibody concentration versus mean fluorescence signals. Nonlinear regression analysis was performed by GraphPad Prism 6 (GraphPad Software, Inc.) and EC₅₀ values were calculated.

In assay [2] the target is T2, human FcγRIIIA (NM_000569) expressed on cells (human, UniProt P08637 17-254). The assay is described as follows: cell-based or functional assay.
T2 sequence (P08637 17-254 limits assumed): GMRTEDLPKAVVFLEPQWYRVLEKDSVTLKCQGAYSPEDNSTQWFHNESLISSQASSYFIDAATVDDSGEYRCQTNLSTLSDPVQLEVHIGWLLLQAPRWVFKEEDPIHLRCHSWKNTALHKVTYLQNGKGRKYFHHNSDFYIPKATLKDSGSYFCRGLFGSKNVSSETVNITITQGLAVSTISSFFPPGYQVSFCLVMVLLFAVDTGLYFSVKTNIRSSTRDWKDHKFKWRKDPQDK
Assay [3] addresses T1, human FcγRIIA (NM_021642) expressed on …. The assay is described as follows: cell-based or functional assay.
Assay [4] concerns the target T3, human FcγRI (NM_000566) expressed on cells (human, UniProt P12314 16-374).
T3 construct: Transiently expressed on Expi293F cells
The assay is described as follows: flow cytometry; Expi293F cells transfected with FcγRI. On the procedure: as §1, §2

In assay [5] the target is T4, human FcγRIIB (NM_004001) expressed on cells (human, UniProt P31994 43-310).
T4 sequence: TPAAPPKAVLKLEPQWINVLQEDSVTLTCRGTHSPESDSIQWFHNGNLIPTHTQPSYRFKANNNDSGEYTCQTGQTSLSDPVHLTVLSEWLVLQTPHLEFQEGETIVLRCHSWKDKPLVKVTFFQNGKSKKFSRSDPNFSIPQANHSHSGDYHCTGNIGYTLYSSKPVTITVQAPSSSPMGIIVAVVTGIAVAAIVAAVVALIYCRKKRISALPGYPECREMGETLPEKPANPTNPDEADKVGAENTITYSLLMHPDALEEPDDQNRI
The assay is described as follows: cell-based or functional assay.

Assay [6] addresses T5, human OX40 expressed on HEK-Blue: OX40 cells (human, UniProt P43489 29-277).
T5 construct: also called CD134
T5 sequence: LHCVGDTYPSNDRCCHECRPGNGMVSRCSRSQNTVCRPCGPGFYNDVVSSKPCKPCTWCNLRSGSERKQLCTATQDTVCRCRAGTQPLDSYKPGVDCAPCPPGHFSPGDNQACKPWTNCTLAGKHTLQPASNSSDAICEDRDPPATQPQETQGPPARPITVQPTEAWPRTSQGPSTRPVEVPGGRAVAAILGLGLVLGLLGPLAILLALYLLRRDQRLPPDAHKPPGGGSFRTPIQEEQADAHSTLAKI
The assay is described as follows: flow cytometry; HEK-Blue: OX40 cells. Summed up:
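HEK-Blue Null 1 cells stably transfected with human OX40 were blocked, then incubated with mAbtyrin for 1.5 h at 4 °C. Binding was detected with a PE anti-human IgG F(ab′)₂ secondary, gating on DRAQ7-excluding live cells and taking geometric mean fluorescence. EC50 came from nonlinear regression versus log antibody concentration.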

Assay [7] concerns the target T4, human FcγRIIB (NM_004001) expressed on …. Description: flow cytometry; Expi293F cells transfected with FcγRIIB. On the procedure:
as §1, §2

Assay [8] concerns the target T6, FcγRIIA protein (human, UniProt P12318 36-217, biotinylated (SureLINK Biotin Kit) in the ELISA of Example 1).
T6 sequence: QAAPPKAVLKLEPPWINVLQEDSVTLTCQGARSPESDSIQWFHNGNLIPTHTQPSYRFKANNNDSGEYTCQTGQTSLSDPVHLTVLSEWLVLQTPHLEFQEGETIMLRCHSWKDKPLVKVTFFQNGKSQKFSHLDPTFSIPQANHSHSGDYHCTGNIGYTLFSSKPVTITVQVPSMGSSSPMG
The assay is described as follows: cell-based or functional assay.

The target of assay [9] is T7, FcγRIIB protein (human, UniProt P31994 43-217, biotinylated (SureLINK Biotin Kit) in the ELISA of Example 1).
T7 sequence: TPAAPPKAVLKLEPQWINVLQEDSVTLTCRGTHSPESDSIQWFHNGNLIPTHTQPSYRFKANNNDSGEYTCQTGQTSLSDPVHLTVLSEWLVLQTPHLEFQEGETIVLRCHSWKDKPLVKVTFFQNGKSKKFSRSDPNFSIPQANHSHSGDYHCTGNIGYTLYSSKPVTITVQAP
The assay is described as follows: cell-based or functional assay.

In assay [10] the target is T2, human FcγRIIIA (NM_000569) expressed on …. The assay is described as follows: flow cytometry; Expi293F cells transfected with FcγRIIIA. As to the method: as §1, §2
Assay [11] deals with T4, human FcγRIIB (NM_004001) expressed on …. Description: flow cytometry; Raji cells (express predominantly FcγRIIB). As to the method: as §2
Raji cell is a cell line derived from B cells that express predominantly FcγRIIB. The binding of mAbtyrins on Raji cells were investigated by flow cytometry assay described for testing mAbtyrin binding to FcγR. Binding of the mAbtyrins were detected by flow cytometry using a PE-labeled Goat F(ab′) against Human IgG(γ).

T3 sequence (P12314 16-374 limits assumed): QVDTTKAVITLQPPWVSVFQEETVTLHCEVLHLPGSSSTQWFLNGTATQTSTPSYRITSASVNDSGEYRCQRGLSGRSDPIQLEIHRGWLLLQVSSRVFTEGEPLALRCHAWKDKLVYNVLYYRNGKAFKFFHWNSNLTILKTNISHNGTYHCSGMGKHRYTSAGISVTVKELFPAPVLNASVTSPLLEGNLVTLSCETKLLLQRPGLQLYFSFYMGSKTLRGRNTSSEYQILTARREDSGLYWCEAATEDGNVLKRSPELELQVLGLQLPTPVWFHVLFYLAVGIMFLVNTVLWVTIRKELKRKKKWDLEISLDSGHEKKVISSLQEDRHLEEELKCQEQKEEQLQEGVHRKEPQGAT

B1: OX40SF2IgG2sigma_R2BS29_HC-N (bispecific antibody)
heavy: LPAPKNLVVSRVTEDSARLSWTAPDAAFDSFPIYYWEYRVGGEAIVLTVPGSERSYDLTGLKPGTEYFVYINGVKGGEESRPLSAIFTTGGGGSGGGGSGGGGSGGGGSQVQLVQSGAEVKKPGSSVKVSCKASGYTFKDYTMHWVRQAPGQGLEWIGGIYPNNGGSTYNQNFKDRVTLTADKSTSTAYMELSSLRSEDTAVYYCARMGYHGPHLDFDVWGQGTTVTVSSASTKGPSVFPLAPCSRSTSESTAALGCLVKDYFPEPVTVSWNSGALTSGVHTFPAVLQSSGLYSLSSVVTVPSSNFGTQTYTCNVDHKPSNTKVDKTVERKCCVECPPCPAPPAAASSVFLFPPKPKDTLMISRTPEVTCVVVDVSAEDPEVQFNWYVDGVEVHNAKTKPREEQFNSTFRVVSVLTVLHQDWLNGKEYKCKVSNKGLPSSIEKTISKTKGQPREPQVYTLPPSREEMTKNQVSLTCLVKGFYPSDIAVEWESNGQPENNYKTTPPMLDSDGSFFLYSKLTVDKSRWQQGNVFSCSVMHEALHNHYTQKSLSLSPGK
light: DIQMTQSPSSLSASVGDRVTITCKASQDVGAAVAWYQQKPGKAPKLLIYWASTRHTGVPSRFSGSGSGTDFTLTISSLQPEDFATYYCQQYINYPLTFGGGTKVEIKRTVAAPSVFIFPPSDEQLKSGTASVVCLLNNFYPREAKVQWKVDNALQSGNSQESVTEQDSKDSTYSLSSTLTLSKADYEKHKVYACEVTHQGLSSPVTKSFNRGEC
notes: mAbtyrin: R2BS29 FN3 domain and linker at the N-terminus of the heavy chain of OX40SF2IgG2sigma; also called mAbtyrin
For the molecule B1, the half-maximal effective concentration (EC50) was 0.042 µg/mL in [1]; over 10 µg/mL in assay [4]; 0.161 µg/mL in assay [6]; 1.01 µg/mL in assay [7]; over 10 µg/mL in assay [10]; 1.2 µg/mL in assay [11]. In addition, in [2], the “ADCC (fold activation) at 1 µg/ml” value was found to be 1 fold. In addition, the “ADCP EC50” value in assay [3] is 0.012 µg/mL. For the same molecule, the “% activity at 1 µg/ml with Raji cells (HEK-Blue: OX40 NF-κB reporter)” value in assay [5] stood at 7%. In addition, in assay [8], the “IFNγ production by activated CD4 T cells, plate-coated FcγRIIA” value was determined as 89 pg/mL. Moreover, the “TNFα production by activated CD4 T cells, plate-coated FcγRIIA” value in [8] is 28 pg/mL. Besides, the “IFNγ production by activated CD4 T cells, plate-coated FcγRIIb” value in assay [9] was determined as 76 pg/mL. Further, the “TNFα production by activated CD4 T cells, plate-coated FcγRIIb” value in assay [9] was determined as 29 pg/mL.

B2: OX40SF2IgG2sigma_R2BS29_LC-C (bispecific antibody)
heavy: QVQLVQSGAEVKKPGSSVKVSCKASGYTFKDYTMHWVRQAPGQGLEWIGGIYPNNGGSTYNQNFKDRVTLTADKSTSTAYMELSSLRSEDTAVYYCARMGYHGPHLDFDVWGQGTTVTVSSASTKGPSVFPLAPCSRSTSESTAALGCLVKDYFPEPVTVSWNSGALTSGVHTFPAVLQSSGLYSLSSVVTVPSSNFGTQTYTCNVDHKPSNTKVDKTVERKCCVECPPCPAPPAAASSVFLFPPKPKDTLMISRTPEVTCVVVDVSAEDPEVQFNWYVDGVEVHNAKTKPREEQFNSTFRVVSVLTVLHQDWLNGKEYKCKVSNKGLPSSIEKTISKTKGQPREPQVYTLPPSREEMTKNQVSLTCLVKGFYPSDIAVEWESNGQPENNYKTTPPMLDSDGSFFLYSKLTVDKSRWQQGNVFSCSVMHEALHNHYTQKSLSLSPGK
light: DIQMTQSPSSLSASVGDRVTITCKASQDVGAAVAWYQQKPGKAPKLLIYWASTRHTGVPSRFSGSGSGTDFTLTISSLQPEDFATYYCQQYINYPLTFGGGTKVEIKRTVAAPSVFIFPPSDEQLKSGTASVVCLLNNFYPREAKVQWKVDNALQSGNSQESVTEQDSKDSTYSLSSTLTLSKADYEKHKVYACEVTHQGLSSPVTKSFNRGECGGGGSGGGGSGGGGSGGGGSMLPAPKNLVVSRVTEDSARLSWTAPDAAFDSFPIYYWEYRVGGEAIVLTVPGSERSYDLTGLKPGTEYFVYINGVKGGEESRPLSAIFTT
notes: mAbtyrin: linker and R2BS29 FN3 domain at the C-terminus of the light chain of OX40SF2IgG2sigma; also called mAbtyrin
Consider B2, for which the EC50 in assay [1] is 0.054 µg/mL; in assay [4], over 10 µg/mL; in assay [6], 0.196 µg/mL; in [7] it was 0.941 µg/mL; in assay [10] it was over 10 µg/mL; in [11], 3.44 µg/mL. The “ADCC (fold activation) at 1 µg/ml” value in assay [2] came out at 1 fold. Besides, the “ADCP EC50” value in assay [3] was 0.0165 µg/mL. Also, the “% activity at 1 µg/ml with Raji cells (HEK-Blue: OX40 NF-κB reporter)” value in assay [5] stood at 76%. Besides, the “IFNγ production by activated CD4 T cells, plate-coated FcγRIIA” value in [8] amounted to 153 pg/mL. In addition, the “TNFα production by activated CD4 T cells, plate-coated FcγRIIA” value in assay [8] was 30 pg/mL. The “IFNγ production by activated CD4 T cells, plate-coated FcγRIIb” value in assay [9] stood at 89 pg/mL. The “TNFα production by activated CD4 T cells, plate-coated FcγRIIb” value in [9] turned out to be 30 pg/mL.
